Positions count from the first letter of the chain named. Blank lines part the entries; values can stand above or below the binder they belong to.
What was measured:
[1] = biological target: T1, murine glial fibrillary acidic protein (GFAP) (mouse, UniProt P03995 1-430); experiment: Western blot of murine brain extracts
T1 construct: Endogenous protein of brain extracts, brain sections or live brain; also called GFAP in murine brain extracts; GFAP in mouse astrocytes
Method: Murine brain extracts were electrophoresed, immunoblotted and incubated with the VHH domains VHH-A10, -B8, -E3 and -E9.
Murine brain proteins (300 mg) were extracted in a potter with 600 μl of NuPage LDS sample buffer (Invitrogen) and kept for […] at 70° C. An aliquot was diluted 1:10 (v/v) with the same sample buffer then treated at 70° C. for 10 min. Following separation by polyacrylamide gel electrophoresis (PAGE) using NuPAGE Novex 4-12% Bis-tris gel (Invitrogen), semi-dry transfer onto Hybond-C (Amersham) and western blotting were carried out using the Xcell II blot module (Invitrogen). Prior to the immunochemical reaction, membranes were blocked in a 4% skimmed milk solution. […] Finally, peroxidase activity was visualized using a chemiluminescent kit (Amersham).

[2] = biological target: T2, human glial fibrillary acidic protein (GFAP) (human, UniProt P14136 1-432); experiment: equilibrium competition ELISA in solution (Friguet et al.)
T2 construct: the endogenous protein in fixed human brain sections in the immunolabelling experiments; also called hGFAP
Method: (§1) The binding affinity of VHHs was determined as described by FRIGUET et al. (1985, J Immunol Methods, 77:305-319). Briefly, various concentrations of GFAP were incubated in solution overnight at 4° C. with a known quantity of VHH until equilibrium was reached. The VHH concentration had been determined by preliminary ELISA calibrations. 100 μl of solution was transferred to a well of a microtiter plate previously coated with GFAP and was incubated for 20 min at 4° C. The plates were washed with PBS-Tween 0.1%. VHHs were detected with rabbit anti-His tag antibodies (eBiosciences, San Diego, Calif.) followed by adding β-galactosidase-conjugated goat anti-rabbit Igs (Biosys, Compiegne, France) and 4-methylumbelliferyl β-D galactoside (Sigma Aldrich, Saint-Quentin Fallavier, France). Fluorescence was read at 460 nm, after excitation at 355 nm. KD was estimated from the slope of the regression curve obtained by plotting the reciprocal of the fraction of bound antibody versus the reciprocal of the molar concentration of antigen.

[3] = biological target: T2, human glial fibrillary acidic protein …; experiment: competition ELISA (Friguet) after heating 15 min at 75 C and cooling 20 min at 4 C
Method: as §1
The heat denaturation of VHH-E9 was adapted to the method described in OLICHON et al. (2007, BMC Biotechnol., 7:7). VHHs are re-suspended in PBS/NaCl 300 mM and are heated for 15 minutes at 75° C. then cooled down at 4° C. for 20 minutes. The binding affinity of VHHs was determined by ELISA as described in Example 1 above.

[4] = biological target: T2, human glial fibrillary acidic protein …; experiment: equilibrium competition ELISA in solution (Friguet et al.), GFAP-coated plate
Method: as §1

[5] = biological target: T2, human glial fibrillary acidic protein …; experiment: competition ELISA (Friguet) as in Example 1
Method: as §1

[6] = biological target: T2, human glial fibrillary acidic protein …; experiment: immunohistochemistry on human brain paraffin sections
Method: Immunostaining of human brain tissue was performed on 5 μm thick paraffin sections. Sections were de-paraffinized in xylene, rehydrated through ethanol (100%, 96%, and 90%) and finally brought to water. They were incubated with 3% hydrogen peroxyde and 20% methanol, to quench for endogenous peroxydases, and washed in water. Non-specific binding was blocked by incubating the sections for 10 minutes in 2% bovine serum albumin in TBS plus 0.5% Tween.
The distribution of VHH-specific immunoreactivity in mouse and human brains sections were examined after aldehyde fixation and membranes permeabilization, using standard procedure for immunostaining. Immunohistochemistry experiments were performed with VHH-A10 (SEQ ID NO: 5) or VHH domain of SEQ ID NO: 3 fused in frame with the Ig CH2 domain and the His tag (SEQ ID NO: 29) were both used. With this construction, the signal could be amplified by using rabbit anti-alpaca Ig polyclonal antibodies as secondary antibodies, in turn labelled by an anti-rabbit goat polyclonal antibody. As previously reported (LAFAYE et al, 1995, above-cited), the results obtained were similar with the His-tagged antibody.

[7] = biological target: T1, murine glial fibrillary acidic protein …; experiment: immunohistochemistry on fixed, permeabilized brain sections

T1 sequence (P03995 whole entry): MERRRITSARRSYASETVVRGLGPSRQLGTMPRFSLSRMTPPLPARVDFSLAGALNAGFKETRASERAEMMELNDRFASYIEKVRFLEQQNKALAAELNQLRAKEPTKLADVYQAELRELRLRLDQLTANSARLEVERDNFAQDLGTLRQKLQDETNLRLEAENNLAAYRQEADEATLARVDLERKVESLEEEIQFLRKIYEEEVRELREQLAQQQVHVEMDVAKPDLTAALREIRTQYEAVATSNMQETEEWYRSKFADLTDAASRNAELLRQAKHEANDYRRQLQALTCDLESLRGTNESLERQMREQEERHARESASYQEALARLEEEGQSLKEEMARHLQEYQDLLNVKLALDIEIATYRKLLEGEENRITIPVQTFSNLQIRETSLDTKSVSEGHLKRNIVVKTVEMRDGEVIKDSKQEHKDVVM
T2 sequence (P14136 whole entry): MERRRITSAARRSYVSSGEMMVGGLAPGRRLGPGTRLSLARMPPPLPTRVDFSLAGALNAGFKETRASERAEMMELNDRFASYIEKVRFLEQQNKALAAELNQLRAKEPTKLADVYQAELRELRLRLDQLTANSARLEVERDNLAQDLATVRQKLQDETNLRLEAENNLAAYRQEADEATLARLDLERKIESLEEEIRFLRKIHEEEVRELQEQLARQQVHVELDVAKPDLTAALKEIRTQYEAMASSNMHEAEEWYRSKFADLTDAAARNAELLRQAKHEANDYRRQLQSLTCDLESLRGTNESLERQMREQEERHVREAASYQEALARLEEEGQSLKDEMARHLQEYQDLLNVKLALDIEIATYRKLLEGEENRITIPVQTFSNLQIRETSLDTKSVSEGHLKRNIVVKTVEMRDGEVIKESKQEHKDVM

binding result [1]: binds
Kd [2]: 5.2 nM
B1: VHH-B8 (VHH)
VHH: DVQLQVSGGGSVQPGGSLRLSCAAPGFTFSNYAMYWLRQAPGKGIEWVSRIGPGGSHTEYADSVKGRFAISRDNAKNTLSLQMNSLKPEDTAAYYCAITQQGSGRGRGTQVTVSSAAASLSTELEFGSELIPISMADVQLQVSGGGSVQPGGSLRLSCAASGFTFSNYAMYWLRQAPGKGIEWVSRIGPGGSHTEYADSVKGRFTISRDNAKNTLSLQMNSLKPEDTAVYYCAITQQGSGRGRGTQVTVSSAAALEHHHHHH
notes: One polypeptide entry

Kd [3]: 3.8 nM
Kd [4]: 5.6 nM
binding result [1]: binds
B2: VHH-E9 (VHH)
VHH: DVQLQVSGGGSVQPGGSLRLSCAASGFTFSNYAMYWLRQAPGKGIEWVSRIGPGGSHTEYADSVKGRFTISRDNAKNTLSLQMNSLKPEDTAVYYCAITQQGSGRGQGTQVTVSS
notes: Alpaca VHH with C-terminal His tag; also called anti-GFAP VHH-E9; native VHH-E9

Kd [4]: 3.1 nM
binding result [1]: binds
B3: VHH-A10 (VHH)
VHH: DVQLRASGGGLVQPGGSLRLSCAASGFTFSNYAMYWLRQAPGKGIEWVSRIGPGGSHTEYADSVKGRFTISRDNAKNTLSLQMNSLKPEDTAVYYCAITQQGSGRGQETQVTVSSAAALEHHHHHH
notes: Alpaca VHH with C-terminal His tag, expressed in the E. coli periplasm from pET22; also called anti-GFAP VHH-A10; VHH-His

binding result [1]: binds
B4: VHH-E3 (VHH)
VHH: B2 VHH with S25P, T69A, V93A, Q107R
notes: Alpaca VHH with C-terminal His tag; also called anti-GFAP VHH-E3

Kd [5]: 12 nM
fold reduction of affinity against native VHH-E9 [5]: 2 fold
B5: VHH-E9 SS-free (VHH)
VHH: B3 VHH with R5Q, A6V, L11S, C22S, C96S, E108G
notes: also called cysteine-free derivative of VHH E9

binding result [6]: binds
binding result [7]: binds
B6: VHH domain of SEQ ID NO: 3 fused in frame with the Ig CH2 domain and the His tag (VHH)
chain: DVQLRASGGGLVQPGGSLRLSCAASGFTFSNYAMYWLRQAPGKGIEWVSRIGPGGSHTEYADSVKGRFTISRDNAKNTLSLQMNSLKPEDTAVYYCAITQQGSGRGQETQVTVSSAAAAPELLGGPSVFIFPPKPKDVLSISGRPEVTCVVVDVGQEDPEVSFNWYIDGAEVRTANTRPKEEQFNSTYRVVSVLPIQHQDWLTGKEFKCKVNNKALPAPIEKTISKAKLEHHHHHH
notes: the sentence could be read otherwise; also called VHH-A10 fused with the CH2 domain

Reference: patent US20110250211A1 (INSTITUT PASTEUR, published 2011)
